Test results as given in the supplement of paper PMC12042874.
± gives the uncertainty stated by the source.

Test: amyloid nucleation score (Sup35N fusion, yeast selection) (log enrichment); library NNK3; higher = more nucleation; inactive = no reads after selection
In short: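 Three technical output replicates were used for random libraries. Psi-negative yeast expressing peptides of 20 random codons fused to Sup35N were induced with 100 μM copper sulfate for 24 hours and grown 7 days at 30°C on medium lacking adenine and uracil, and input and output plasmid inserts were Illumina-sequenced, excluding sequences with under 100 input reads. The nucleation score is the DiMSum log enrichment of output over input reads, centred on the mode score of non-aggregating sequences.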

Substance | amyloid nucleation score
VTLADEDGYKFLTLVKVLTY | inactive
NENPDNYLRIAVWTTFFSFC | 1.57 ± 0.095
DPVMTACNALMTSVS | -0.319 ± 1.3
LVFHYRARKGLSIIG | inactive
QQYYVAWFCDYDLFNCMNLM | 1.99 ± 0.095
FIIIVDYSFMPGSRVCMFSW | inactive
FFTSTLLSRPNVPNIYSISR | inactive
FNERDWCNSSGSSHVLWSSM | inactive
SRMPCRFM | inactive
RNPWKFAATRFRLLQNPLVE | -0.185 ± 0.9
VVDNRNLSTCFYFRCVDWCQ | inactive
FIFHNHVFFDLSNMFRYYVY | 1.92 ± 0.087
VRNWTDD | inactive
YSLNCYYFSLGLN | inactive
LSVMDGTSYAGCELKNVEGW | inactive
CGDAPRQVVVGPRYKRSMES | -0.193 ± 0.65
VNELSFSTSF | inactive
LLVLKYVMSRTWWSWGA | inactive
CIVKTLQ | inactive
MTVRETLYWVRS | inactive
ASFSMG | inactive
LKCDLMWLMLDNYTAVDSFR | inactive
LLCIFDSRCERLNVLAFRYV | inactive
TADIESMIMFNGRVPGHLSV | inactive

Substance | amyloid nucleation score
KSRTIQECMAATYVSVFECF | inactive
RSLLGGSKAVYTWDWQPAII | inactive
VMMFSELGCCVLCGPLKDNM | 1.62 ± 0.06
CVDTDLVERWIAWVSSGVML | 0.663 ± 0.21
NLQNGDYITVWTEWEQEACR | inactive
INSTRMAFVWR | inactive
SLMDVN | inactive
LELGIYHLMERGIL | inactive
LFFMIVFSLYEFVMCFSSTR | inactive
IGVYWVLPPGFFGWQNTLMI | 0.161 ± 0.56
SISSYMD | inactive
LMNKKCNPGDKTLQIYIRRG | inactive
KLFWMIVCGVLNLNSNNYGG | 2.57 ± 0.084
CMHGKGHSTFINNKDPVKVR | inactive
SSYLDTNWRMP | inactive
TLGLAVFDNSMDRWYEDVKK | inactive
VCWSHNPRPTDDY | inactive
SLLRFSLGSCWTFSPKGNYL | 1.87 ± 0.085
TMGGNVIV | inactive
YRINDKSFNVISGIVFSVVR | inactive
WQTMPGVRDGCAECEIYWG | inactive
RRMAETKHGAPMQRVLK | inactive
LDDEVEQSTAASDIRLLSTL | inactive
VVFENLDRAFVYRRLDPIRC | inactive

Substance | amyloid nucleation score
SKPLFMTNNVTMGTIWPHMG | inactive
YVVAGS | inactive
GRIQPCISRAAGPDAGVMGL | inactive
TNYYFQNV | inactive
MYFVKMLMGVILLVNFSRW | inactive
STITYHLDIEVRKCWVFYMY | inactive
FIWAREFSVLRSHRRWPTEN | inactive
IVCHHRDYFLAYYYEMLHCR | inactive
ATMKWFCIKHSFFPIGTCYA | inactive
LWLVIN | inactive
RIIAGWTYRSSQIWYFRDPH | inactive
INLGLPVWSSIIFFNQSHNL | 0.679 ± 0.14
WSRSSV | inactive
MWICVILGSQIWSRWETMNG | inactive
RIWRPLTFMSLDLMIMWCRH | inactive
YTDTYSSLKDLPTGINCYNI | inactive
FLSDYGSC | inactive
VERSSLVEWSCDRVSKWYFV | 0.298 ± 0.74
MINWYGRTNPLCDPGLLRGI | inactive
LALWFRGPLLLLSSLI | inactive
QDVAFAAEYELTKCSVLFSN | inactive
SADNLDKFRLEMPVSLVRLN | inactive
RYTVSGTLSAYF | -0.112 ± 0.37
KCMAI | inactive

Substance | amyloid nucleation score
LLYNTMSLSSSWEY | 0.893 ± 0.17
YGETAMRRSLTSLYNHMSLN | inactive
MTVWNSWNINIVWVMFLSA | inactive
FTMSYYKYLSHGRMRRGT | inactive
IFHRD | inactive
VWGMMFNMCYRELCLAMTLF | inactive
YRLRNSS | inactive
MVLDDYIRKGG | 0.073 ± 0.33
ILCAFTRVWCYTNGPYESGR | 2.72 ± 0.053
SEPLYSVVLSDMDELWHCL | inactive
FDNKFKHSYYDTLAA | inactive
GSKYMQRHLNTI | inactive
LNYMSDFYLLLSERTCVYYQ | 0.754 ± 0.16
YKQHYRRSRHCIKHYVGGSE | inactive
LLDDVIRDAMPGSAGRSISG | inactive
SRFLSIRELRFWYSMNRWGI | inactive
FVSMRIYGGLRRWHHEYLVV | inactive
CFAFGW | inactive
AHFISFNRYHVARFINAHRL | inactive
YDWSVPAKSS | inactive
NAHPWGYWSIVMRNIKVVVL | inactive
TQGYVFKELAGVSRYTEA | inactive
HHNTYCYVLFELFTV | 0.505 ± 0.49
LSLMSSVGCRCSVFSWLYVN | inactive

Substance | amyloid nucleation score
VYSGESNQIYIMNWPVTSKQ | 0.062 ± 0.59
TDRFNAFSWAVASGFVDFDG | inactive
GSFMDHKTR | -0.382 ± 1.1
GAGYL | inactive
AIELIFVLWAFAHCAPCFEL | inactive
TSRYIGL | inactive
VGYAGVIIEKKYHCPKKSAF | inactive
YISSPSIWLCISCEHRGTSA | 2.92 ± 0.07
FCFSGRMTYHFTTWFIKRRS | inactive
SESSNTELLSVLYIYAVWYL | inactive
GCFSV | inactive
QVFLRMKRRICVPLFYLACN | 0.422 ± 0.21
KLILFLTRVFRSFQVSWRQF | inactive
FCMMKRSFCPDLNKLATDLV | inactive
CSEVGRS | inactive
NFTSRSAVLVR | 2.21 ± 0.07
QEAGFMYGCYFVILQNHAGF | 1.3 ± 0.092
PQLLVSYYL | inactive
LYCCTGEHGSLASVCSSTLT | -0.852 ± 1.5
YLIGYDT | 0.366 ± 0.65
STGWSMLVFRTRCYLFSFSG | inactive
SGLWW | inactive
RYTGLMTKLASYYNKISICN | inactive
